Measurements: publication PMC9482095
Like-named read-outs stand apart in the source and are kept apart here.

Legend:
FOXO1 FKH wt [1] = target: T1, FOXO1 FKH wt (UniProt Q12778 151-265); assay: EMSA
FOXO1 FKH wt [2] = target: T1, FOXO1 FKH wt; assay: EMSA; remark: listed apart in the source

Binder | Kd (FOXO1 FKH wt [1]) | Kd (FOXO1 FKH wt [2])
dsIRE (dsDNA) DNA 1: TAAGCTAGTGGTTTGTTTTGCTTGCTAGCAAT DNA 2: ATTGCTAGCAAGCAAAACAAACCACTAGCTTA | 200 ± 70 nM | 
dsDBE2 (dsDNA) DNA 1: TAAGCTAGTCTTGTTTACATTTTGCTAGCAAT DNA 2: ATTGCTAGCAAAATGTAAACAAGACTAGCTTA |  | 90 nM
